The test system of this data set is O=C(O)P(=O)(O)O. Conditions: Human immunodeficiency virus 1.

Description: Inhibition of HIV1 reverse transcriptase E89K mutant mediated single strand incorporation into DNA at +16 position using polypurine tract PPT+16/PPT57 template after 7 mins by gel based assay

In the case of “Human immunodeficiency virus type 1 reverse transcriptase (Human immunodeficiency virus 1) (from UniProt Q72547) E89K”, the catalytic efficiency (kcat/Km) was determined as 6000 M⁻¹ s⁻¹.

As a reminder, the kcat/Km is the turnover number divided by the Michaelis constant.

For the origin of these results see ChEMBL document CHEMBL1156423.
